In patent US12018066 (TRIAD NATIONAL SECURITY, dated 2024):
Positions count from the first letter of the chain named.

B1: B10 rabbit minibody (scFv-rabbit Fc) (Fc fusion)
scFv-Fc: QSVVTQPPSVSGAPGQRVTISCTGSSSNIGSRTVNWYQQLPGTAPKLLIYANNQRPSGVPDRFSGSKSGTSASLAISGLQSEDEADYYCAAWDDSLNGYVFGTGTKLTVLSGGSTITSYNVYYTKLSSSGTQVQLQQSGPGLVKPSQTLSLTCAISGDSVSSNSATWNWIRQSPSRGLEWLGRTYYGSKWHSDYAVSVKSRITINPDTSKNQISLHLNPVTPEDTAVYYCARGRSYAFDIWDQGTMVTVSS
B2: H01 rabbit minibody (scFv-rabbit Fc) (Fc fusion)
scFv-Fc: QPGLTQPPSVSLAPGQTARITCGGNNIGSKSVHWYQQKPGQAPVLVVYDDSDRPSGIPERFSGSNAGNTATLTISRVEAGDEADYYCQVWDSRSDQYVFGTRTKLTVLSGGSTITSYNVYYTKLSSSGAQVTLKESGPVLVKPTETLTLTCTVSGFSLSNARMGVSWIRQPPGKALEWLAHIFSNGEKSYSTSLKSRLTISKDTSKSQVVLTMTNMDPVDTATYYCARTLDYYDSSGYLVGGAFDIWGQGTMVTVSS
B3: D07 rabbit minibody (scFv-rabbit Fc) (Fc fusion)
scFv-Fc: B2 scFv-Fc with Q1S, P2Y, G3E, L12V, Q16E, I20M, S29T, S31G
B4: E08 rabbit minibody (scFv-rabbit Fc) (Fc fusion)
scFv-Fc: SYVLTQPPSVSVAPGKTARITCGGNNIGWKSVHWYQQKPGQAPVLVVYDDSDRPSGIPERFSGSNSGNTATLTISRVEAGDEADYYCQVWDSSSDLVVFGGGTKLTVLSGGSTITSYNVYYTKLSSSGTQVQLVQSGAEVKKPGSSVKVSCKASGGTFSSYAISWVRQAPGQGLEWMGGIIPIFGTANYAQKFQGRVTITADESTSTAYMELSSLRSEDTAVYYCARASGRWLQFWHYYGMDVWGQGTTVTVSS
B5: D10 rabbit minibody (scFv-rabbit Fc) (Fc fusion)
scFv-Fc: QSVVTQPPSASGSPGQTVTISCSGNSANIGGNPVNWYQQLPGTAPKLLIYSNNQRPSGVPDRFSGSKSGISASLAISGLQSEDEADYYCAAWDDSLNGVIFGGGTKLTVLSGGSTITSYNVYYTKLSSSGTQVQLVQSGAEVKKPGESLKISCKGSGYSFTSYWIGWVRQMPGKGLEWMGIIYPGDSDTRYSPSFQGQVTISADKSISTAYLQWSSLKASDTAMYYCARRHSGSYSGAFDIWGQGTMVTVSS
B6: B04 rabbit minibody (scFv-rabbit Fc) (Fc fusion)
scFv-Fc: SYVLTQPPSVSVAPGKTARITCGGNNIGIRSVHWYQQKPGQAPVLVIYYDSDRPSGIPERFSGSKSGNTATLTISRVEAGDEADYYCQVWDSSSDHPVFGGGTKLTVLSGGSTITSYNVYYTKLSSSGTQVQLVESGAEVKKPGASVKVSCKASGYTFTRYYMHWVRQAPGQGLEWMGIINPSGGTTSYAQKFQGRVTMTRDTSTSTVYMELSSLRSEDTAVYYCARSFGELTSFDYWGQGTLVTVSS
B7: D04 rabbit minibody (scFv-rabbit Fc) (Fc fusion)
scFv-Fc: SYVLTQPPSVSVAPGKTARITCGGNNIGWKSVHWYQQKPGQAPVLVVYNDNDRPSGVPERFSGSNSGNTATLTISRVVAGDEADYYCQVWDSSSDHVLFGGGTKLTVLSGGSTITSYNVYYTKLSSSGTQVQLVQSGAEVKKPGSSVKVSCKASGGTFSSYAISWVRQAPGQGLEWMGGIIPIFGTANYAQKFQGRVTITADESTSTAYMELSSLRSEDTAVYYCARASGRWLQFWHYYGMDVWGQGTTVTVS
B8: E01 human minibody (scFv-human Fc) (Fc fusion)
chain: SYELTQPPSVSVAPGETARITCGGDNIGRRHVHWYQQKPGQAPVLVIYDDSDRPSGIPDRFSGSNSGNTATLTIGRVEAGDEADYYCQVWGSSNDPHVFGTGTKLTVLSGGSTITSNNVYYTKLSSSGTQVQLQQWGAGLLKPSETLSLKCAVYGGSFSGYYWGWIRQSTGKGLEWIGEINRSGSTNYNPSLKSRVTISVDTSKNQFSLKLSSVTAADTAVYYCARGGARYYYGSGSYRSTPRPYYFDYWGQGTLVTVSS
B9: H03 human minibody (scFv-human Fc) (Fc fusion)
scFv-Fc: SYELTQPPSVSVAPGQTARITCGGNNIGSKSVHWYQQKPGQAPVLVIYYDSDRPSGIPERFSGSNSGNTATLTISRVEAGDEADYYCQVWDSSSALYVFGTRTKVTVLSGGSTITSYNVYYTKLSSSGTQVQLVESGGGLVQPGRSLRLSCAASGFTFDDYAMHWVRQAPGKGLEWVSGISWNSGSIGYADSVKGRFTISRDNAKNSLYLQVNSLRAEDTAVYYCARELIVGTTSPQTDAFDIWGQGTMVTVSS
B10: D11 human minibody (scFv-human Fc) (Fc fusion)
scFv-Fc: SYELTQPPSVSVAPGQTARITCGGNNIGSKSVHWYQQKPGQAPVLVVYDDSDRPSGIPERFSGSNSGNTATLTISGTQAMDEADYYCQAWDSSTAYVFGSGTKLTVLSGGSTITSYNVYYTKLSSSGTQVQLEESGGGLVQPGGSLRLSCAASGFTFSNYAMSWVRQAPGKGLEWVSAISGSGGATFHADSVKGRFTISRDNSKNTLYLQMNSLRAEDTAVYYCARRVGYDSSGYYWSDAFDIWGQGTMVTVSS
B11: H02 human minibody (scFv-human Fc) (Fc fusion)
scFv-Fc: QSVVTQPPSVSAAPGQKVTISCSGSSSNIGNNYVSWYQQLPGTAPKLLIYRDTQRPSGVPDRFSGSKSGTSASLAISGLRSEDEADYYCATWDKSLSGPVFGGGTKVTVLSGGSTITSYNVYYTKLSSSGTQVQLQQSGPGLVKPSQTLSLTCAISGDSVSSNSAAWNWIRQSPSRGLEWLGRTYYRSKWYNDYAVSVKSRIIINPDTSKNQFSLQLNSVTPEDTAVYYCARQDNNPYYGLDVWGQGTTVTVSS
B12: B10 human minibody (scFv-human Fc) (Fc fusion)
scFv-Fc: B1 scFv-Fc
B13: G07 human minibody (scFv-human Fc) (Fc fusion)
scFv-Fc: QSVLIQPPSASGTPGQRVTISCSGSNSNFGSNSVSWYQQRPGTAPKLLIEGNNQRPSGVPERFSGSKSGTSASLAISGLQSEDEAEYSCASWDDSLNAFVFGPGTKLTVLSGGSAITSYNVYYTKLSSSGTQVQLVQSGAEVKKPGESLKISCKGSGYSFTSYWIGWVRQMPGKGLEWMGIIYPGDSDIRYSPSFQGQVTISADKSFSSAYLQWSSLKASDTAMYYCARLGATGAFDIWGQGTTVTVSS
B14: D07 human minibody (scFv-human Fc) (Fc fusion)
scFv-Fc: B2 scFv-Fc with Q1S, P2Y, G3E, L12V, Q16E, I20M, S29T, S31G
B15: H05 human minibody (scFv-human Fc) (Fc fusion)
scFv-Fc: SYVLTQPPSVSVAPGQTARITCGANNIGRISVHWYQQKPGQAPVLVVYDDSDRPSGIPERFSGSNFGNTATLTISRVEAGDEADYYCQVWDSYSDHVIFGGGTKLTVLSGGSTITSYNVYYTKLSSSGTQVQLVQSGAEVKKPGSSVKVSCKASGGTFSSYAISWVRQAPGQGLEWMGGIIPIFGTANYAQKFQGRVTITADESTSTAYMELSSLRSEDTAVYYCARSIFGVVIISHADGYYYGMDVWGQGTTVTVSS
B16: R26 human minibody (scFv-human Fc) (Fc fusion)
scFv-Fc: SYELTQPPSVSVAPGQTATITCGGKNIESKSVHWYQQKPGQAPVLVVSDDTDRASGIPERFSGSNSGGAATLTISRVEAGDEADYYCQVWDSPSDHYVFGPGTKLTVLSGGSTITSYNVYYTKLSSSGTQVQLVESGGGVVQPGRSLRLSCAASGFTFSSYAMHWVRQAPGKGLEWVAVISYDGSNKYYADSVKGRFTISRDKAKNTLYLQMNSLRGEDTAVYYCARELSYYDSSGYLRGDWYFDLWGRGTLVTVSS
B17: D10 human minibody (scFv-human Fc) (Fc fusion)
scFv-Fc: B5 scFv-Fc
B18: B04 human minibody (scFv-human Fc) (Fc fusion)
scFv-Fc: B6 scFv-Fc
B19: D04 human minibody (scFv-human Fc) (Fc fusion)
scFv-Fc: B7 scFv-Fc

molecular target: T1, SARS-CoV spike protein receptor binding domain (RBD1) (SARS-CoV, UniProt P59594 306-527); assay: ELISA, crude rabbit minibody

Binder	binding result
B1	no binding
B2	no binding
B3	no binding
B4	binds
B5	no binding
B6	no binding
B7	no binding

molecular target: T1, SARS-CoV spike protein receptor binding …; assay: ELISA, crude human minibody

Binder	binding result
B8	no binding
B9	no binding
B10	no binding
B11	no binding
B12	no binding
B13	no binding
B14	no binding
B15	no binding
B16	no binding
B17	no binding
B18	no binding
B19	no binding
